Our source for the stoichiometry N values is publication PMC7815755.

The target of experiment [1] is Immunity-related GTPase B10 (IRGB10), mouse, full length, wild type (mouse) (UniProt Q0GUM3). The experiment in a line: SEC-MALS; third peak of the first SEC, Superdex 200 10/300, 20 mM Tris-HCl pH 8.0, 150 mM NaCl, room temperature, no GTP added. Background: Size exclusion chromatography separates by hydrodynamic size, large species first.
In experiment [2] the target is IRGB10 D185R mutant (head-to-head dimer disruption mutant) (mouse) (UniProt Q0GUM3). The experiment in a line: SEC-MALS; tentative dimer peak of the head-to-head disruption mutants (Fig. 3e, g).

Take “Immunity-related GTPase B10 (IRGB10), mouse, full length, wild type (from UniProt Q0GUM3 1-417) (natural protein)”: in experiment [1], the stoichiometry N is 2.

With “IRGB10 D185R mutant (head-to-head dimer disruption mutant) (from UniProt Q0GUM3 1-417) (natural protein)”, the stoichiometry N in experiment [2] is 2.

The stoichiometry N is a count of units in the complex or per binding partner.
